Assay results reported in publication PMC6872781 (Neoplasia (New York, N.Y.), 2019).

Biological target: T1, PODXL1-HA(x3)-His(x6) (human, UniProt O00592-1 23-558)
T1 sequence (looked up): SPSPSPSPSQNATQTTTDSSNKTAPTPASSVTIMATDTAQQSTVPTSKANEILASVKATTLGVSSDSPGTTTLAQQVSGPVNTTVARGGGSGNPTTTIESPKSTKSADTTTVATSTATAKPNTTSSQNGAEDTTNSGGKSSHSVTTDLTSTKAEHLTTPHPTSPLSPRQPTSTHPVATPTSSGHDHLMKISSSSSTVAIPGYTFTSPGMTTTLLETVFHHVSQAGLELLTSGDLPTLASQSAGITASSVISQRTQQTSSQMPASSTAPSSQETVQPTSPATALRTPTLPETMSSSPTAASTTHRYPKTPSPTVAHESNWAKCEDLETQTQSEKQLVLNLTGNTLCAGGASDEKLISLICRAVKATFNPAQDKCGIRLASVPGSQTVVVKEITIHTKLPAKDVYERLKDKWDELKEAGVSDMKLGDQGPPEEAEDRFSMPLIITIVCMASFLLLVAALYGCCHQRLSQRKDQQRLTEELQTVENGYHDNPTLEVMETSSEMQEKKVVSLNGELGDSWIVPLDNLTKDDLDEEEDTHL
Test: pull-down

binding result: binds
B1: C5aR (Complement component 5a receptor 1), C-terminal 3xFlag-6xHis-tagged (receptor, human, UniProt P21730 1-350, looked up)
chain: MDSFNYTTPDYGHYDDKDTLDLNTPVDKTSNTLRVPDILALVIFAVVFLVGVLGNALVVWVTAFEAKRTINAIWFLNLAVADFLSCLALPILFTSIVQHHHWPFGGAACSILPSLILLNMYASILLLATISADRFLLVFKPIWCQNFRGAGLAWIACAVAWGLALLLTIPSFLYRVVREEYFPPKVLCGVDYSHDKRRERAVAIVRLVLGFLWPLLTLTICYTFILLRTWSRRATRSTKTLKVVVAVVASFFIFWLPYQVTGIMMSFLEPSSPTFLLLKKLDSLCVSFAYINCCINPIIYVVAGQGFQGRLRKSLPSLLRNVLTEESVVRESKSFTRSTVDTMAQKTQAV
